{"source": "patent US20260008815A1", "about": "“CYCLIC PEPTIDE OR SALT THEREOF, AND USES THEREOF” (FUJIFILM Corporation, priority 2023, published 2026)", "note": "Numbered stars: 1 amine (or outer) side, 2 acyl side, 3 side chain; on linkers, the order of the positions; unused ones are H or OH. Bridge positions count the residues as written; N and C are the ends. Ends that are not written are not given here. acetyl = acetyl (haloacetyl before ring closure) on the side-chain amine, O=C(C[*:1])[*:2]; COCH2 = acetyl group that carries the bridge"}
{"biological_target": "T1, Recombinant Human FGFR2 alpha (IIIc) Fc Chimera Protein (Homo sapiens, UniProt P21802)", "T1 construct": "Fc (chimera); purchased R&D systems 712-FR-050", "T1 sequence (P21802 with tags, fused parts or gaps limits assumed)": "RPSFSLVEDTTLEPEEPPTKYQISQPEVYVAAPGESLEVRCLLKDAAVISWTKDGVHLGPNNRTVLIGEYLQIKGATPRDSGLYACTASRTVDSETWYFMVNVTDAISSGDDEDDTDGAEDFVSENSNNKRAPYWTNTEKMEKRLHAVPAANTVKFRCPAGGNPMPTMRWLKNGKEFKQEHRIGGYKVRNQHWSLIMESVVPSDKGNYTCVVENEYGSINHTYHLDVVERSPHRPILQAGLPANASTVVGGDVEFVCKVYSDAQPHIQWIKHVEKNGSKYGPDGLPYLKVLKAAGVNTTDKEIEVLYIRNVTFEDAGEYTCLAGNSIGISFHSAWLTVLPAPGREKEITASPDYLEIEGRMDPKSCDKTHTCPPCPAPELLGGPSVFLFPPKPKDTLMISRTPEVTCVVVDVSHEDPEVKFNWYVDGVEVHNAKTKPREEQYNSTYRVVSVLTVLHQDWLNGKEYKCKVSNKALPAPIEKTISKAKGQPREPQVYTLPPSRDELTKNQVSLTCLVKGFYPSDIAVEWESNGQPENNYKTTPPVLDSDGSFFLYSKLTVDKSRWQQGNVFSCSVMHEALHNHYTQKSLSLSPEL", "assay": "ELISA binding affinity of enzymatically synthesized peptide to FGFR", "conditions": "ELISA luminescence signal at 10 nmol/L peptide, SEQ ID NO: 47 at 10 nmol/L standardized to 1; enzyme synthesis product", "procedure,_shortened": "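FGFR2 alpha (IIIc) Fc chimera (5 ng/well) was immobilized, and Myc-tagged peptide was bound 3 h at room temperature, then detected with anti-Myc antibody (2 h) and chemiluminescent substrate. Signal was corrected against FGFR-free wells. Score A–D was the luminescence at 10 nmol/L peptide, normalized to cyclic peptide SEQ ID NO: 47.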"}
{"substance": "334 (YCEENYLDPEQYQYFIYFK(COCH2)A; thioether 2-19 (inferred)) [compound 334]", "Evaluation result of binding affinity to FGFR": "A (0.7 or more)"}
{"substance": "59 (KCPQNFIAPVQWRYFQHYK(COCH2)N; thioether 2-19 (inferred)) [compound 59]", "Evaluation result of binding affinity to FGFR": "B (0.5 or more and less than 0.7)"}
{"substance": "375 (DCLQFIYQYLYTVK(COCH2)I; thioether 2-14) [compound 375]", "Evaluation result of binding affinity to FGFR": "C (0.1 or more and less than 0.5)"}
{"substance": "242 (YCEENYLDPYQYQYFIYFK(COCH2)Y; thioether 2-19 (inferred)) [compound 242]", "Evaluation result of binding affinity to FGFR": "A (0.7 or more)"}
{"substance": "36 (CRALLRGAPFHLAEK(COCH2); thioether 1-15) [compound 36]", "Evaluation result of binding affinity to FGFR": "D (less than 0.1)"}
{"substance": "362 (LCYLYQYLYTTK(COCH2)Y; thioether 2-12) [compound 362]", "Evaluation result of binding affinity to FGFR": "C (0.1 or more and less than 0.5)"}
{"substance": "284 (YCEENYLDPEQYQYFQYFK(COCH2)Y; thioether 2-19) [compound 284]", "Evaluation result of binding affinity to FGFR": "A (0.7 or more)"}
{"substance": "269 (YCEENYLDPEQYRYFIYFK(COCH2)Y; thioether 2-19) [compound 269]", "Evaluation result of binding affinity to FGFR": "A (0.7 or more)"}
{"substance": "266 (YCEENYLDPEQYTYFIYFK(COCH2)Y; thioether 2-19) [compound 266]", "Evaluation result of binding affinity to FGFR": "A (0.7 or more)"}
{"substance": "110 (QCQTDHQQQLYFIYQYLQK(COCH2)I; thioether 2-19 (inferred)) [compound 110]", "Evaluation result of binding affinity to FGFR": "C (0.1 or more and less than 0.5)"}
{"substance": "392 (YCHENYLDPEQYQYFHYFK(COCH2)Y; thioether 2-19 (inferred)) [compound 392]", "Evaluation result of binding affinity to FGFR": "A (0.7 or more)"}
{"substance": "428 (ECDQAQQVYALIYRYLYQLQK(COCH2)V; thioether 2-21 via acetyl) [compound 428]", "Evaluation result of binding affinity to FGFR": "C (0.1 or more and less than 0.5)"}
{"substance": "270 (YCEENYLDPEQYHYFIYFK(COCH2)Y; thioether 2-19) [compound 270]", "Evaluation result of binding affinity to FGFR": "A (0.7 or more)"}
{"substance": "195 (YCEENYIDPEQYQYFIYFK(COCH2)Y; thioether 2-19 (inferred)) [compound 195]", "Evaluation result of binding affinity to FGFR": "A (0.7 or more)"}
{"substance": "116 (QCYQNWYLYQYLVERYYK(COCH2)D; thioether 2-18 (inferred)) [compound 116]", "Evaluation result of binding affinity to FGFR": "C (0.1 or more and less than 0.5)"}
{"substance": "77 (YCPQNFINPVQWRYFQHYK(COCH2)N; thioether 2-19 (inferred)) [compound 77]", "Evaluation result of binding affinity to FGFR": "A (0.7 or more)"}
{"substance": "206 (YCEENYHDPEQYQYFIYFK(COCH2)Y; thioether 2-19 (inferred)) [compound 206]", "Evaluation result of binding affinity to FGFR": "A (0.7 or more)"}
{"substance": "246 (YCEENYLDPSQYQYFIYFK(COCH2)Y; thioether 2-19 (inferred)) [compound 246]", "Evaluation result of binding affinity to FGFR": "A (0.7 or more)"}
{"substance": "279 (YCEENYLDPEQYQYFVYFK(COCH2)Y; thioether 2-19) [compound 279]", "Evaluation result of binding affinity to FGFR": "A (0.7 or more)"}
{"substance": "80 (QCPQNFINPVQWRYFQHYK(COCH2)N; thioether 2-19 (inferred)) [compound 80]", "Evaluation result of binding affinity to FGFR": "A (0.7 or more)"}
{"substance": "153 (YCLENYLDPEQYQYFIYFK(COCH2)Y; thioether 2-19 (inferred)) [compound 153]", "Evaluation result of binding affinity to FGFR": "A (0.7 or more)"}
{"substance": "141 (FCEENYLDPEQYQYFIYFKY; Description of Artificial Sequence: Cyclic peptide) [compound 141]", "Evaluation result of binding affinity to FGFR": "A (0.7 or more)"}
{"substance": "114 (YCTDNYIDDIQFWYLFLYK(COCH2)H; thioether 2-19 (inferred)) [compound 114]", "Evaluation result of binding affinity to FGFR": "A (0.7 or more)"}
{"substance": "273 (YCEENYLDPEQYQNFIYFK(COCH2)Y; thioether 2-19) [compound 273]", "Evaluation result of binding affinity to FGFR": "C (0.1 or more and less than 0.5)"}
{"substance": "222 (YCEENYLDLEQYQYFIYFK(COCH2)Y; thioether 2-19 (inferred)) [compound 222]", "Evaluation result of binding affinity to FGFR": "A (0.7 or more)"}
{"substance": "300 (YCEENYLDPEQYQYFISFK(COCH2)Y; thioether 2-19 (inferred)) [compound 300]", "Evaluation result of binding affinity to FGFR": "A (0.7 or more)"}
{"substance": "138 (LCEENYLDPEQYQYFIYFK(COCH2)Y; thioether 2-19 (inferred)) [compound 138]", "Evaluation result of binding affinity to FGFR": "A (0.7 or more)"}
{"substance": "417 (LCQIYLYLTALQQGFEDFYPK(COCH2)N; thioether 2-21 via acetyl) [compound 417]", "Evaluation result of binding affinity to FGFR": "C (0.1 or more and less than 0.5)"}
{"substance": "355 (YCEENYLDPEQMQYFIYFK(COCH2)Y; thioether 2-19) [compound 355]", "Evaluation result of binding affinity to FGFR": "C (0.1 or more and less than 0.5)"}
{"substance": "313 (YCEENYLDPEQYQYFIYFK(COCH2)W; thioether 2-19 (inferred)) [compound 313]", "Evaluation result of binding affinity to FGFR": "A (0.7 or more)"}
{"substance": "147 (DCEENYLDPEQYQYFIYFKY; Description of Artificial Sequence: Cyclic peptide) [compound 147]", "Evaluation result of binding affinity to FGFR": "A (0.7 or more)"}
{"substance": "94 (QCPQNFINPVQWRYFQHSK(COCH2)N; thioether 2-19 (inferred)) [compound 94]", "Evaluation result of binding affinity to FGFR": "C (0.1 or more and less than 0.5)"}
{"substance": "58 (KCPQNFANPVQWRYFQHYK(COCH2)N; thioether 2-19 (inferred)) [compound 58]", "Evaluation result of binding affinity to FGFR": "B (0.5 or more and less than 0.7)"}
{"substance": "207 (YCEENYLGPEQYQYFIYFK(COCH2)Y; thioether 2-19 (inferred)) [compound 207]", "Evaluation result of binding affinity to FGFR": "A (0.7 or more)"}
{"substance": "197 (YCEENYFDPEQYQYFIYFK(COCH2)Y; thioether 2-19 (inferred)) [compound 197]", "Evaluation result of binding affinity to FGFR": "A (0.7 or more)"}
{"substance": "430 (CHENYLDPEQYQYFHYFK(COCH2)Y; thioether 1-18 via acetyl) [compound 430]", "Evaluation result of binding affinity to FGFR": "A (0.7 or more)"}
{"substance": "390 (YCEENYLDPEQYQYFHYFK(COCH2)R; thioether 2-19 (inferred)) [compound 390]", "Evaluation result of binding affinity to FGFR": "C (0.1 or more and less than 0.5)"}
{"substance": "236 (YCEENYLDPGQYQYFIYFK(COCH2)Y; thioether 2-19 (inferred)) [compound 236]", "Evaluation result of binding affinity to FGFR": "C (0.1 or more and less than 0.5)"}
{"substance": "214 (YCEENYLNPEQYQYFIYFK(COCH2)Y; thioether 2-19 (inferred)) [compound 214]", "Evaluation result of binding affinity to FGFR": "A (0.7 or more)"}
{"substance": "40 (DCSGNFFSKEQFHYLELFK(COCH2)K; thioether 2-19 (inferred)) [compound 40]", "Evaluation result of binding affinity to FGFR": "A (0.7 or more)"}
{"substance": "233 (YCEENYLDEEQYQYFIYFK(COCH2)Y; thioether 2-19 (inferred)) [compound 233]", "Evaluation result of binding affinity to FGFR": "A (0.7 or more)"}
{"substance": "407 (LCVQGNYQNPTQWYYFQLYK(COCH2)W; thioether 2-20 (inferred)) [compound 407]", "Evaluation result of binding affinity to FGFR": "B (0.5 or more and less than 0.7)"}
{"substance": "170 (YCEVNYLDPEQYQYFIYFK(COCH2)Y; thioether 2-19 (inferred)) [compound 170]", "Evaluation result of binding affinity to FGFR": "A (0.7 or more)"}
{"substance": "91 (QCPQNFINPVQWRYFQHVK(COCH2)N; thioether 2-19 (inferred)) [compound 91]", "Evaluation result of binding affinity to FGFR": "C (0.1 or more and less than 0.5)"}
{"substance": "44 (ACEYNYWNQVQFTFLIAFK(COCH2)R; thioether 2-19 via acetyl) [compound 44]", "Evaluation result of binding affinity to FGFR": "B (0.5 or more and less than 0.7)"}
{"substance": "251 (YCEENYLDPEHYQYFIYFK(COCH2)Y; thioether 2-19 (inferred)) [compound 251]", "Evaluation result of binding affinity to FGFR": "C (0.1 or more and less than 0.5)"}
{"substance": "85 (RCPQNFINPVQWRYFQHYK(COCH2)N; thioether 2-19 (inferred)) [compound 85]", "Evaluation result of binding affinity to FGFR": "A (0.7 or more)"}
{"substance": "360 (YCEENYLDPEQYQYFIYFK(COCH2)M; thioether 2-19) [compound 360]", "Evaluation result of binding affinity to FGFR": "A (0.7 or more)"}
{"substance": "124 (DCRDLQLFYIYQYLDALK(COCH2)K; thioether 2-18 (inferred)) [compound 124]", "Evaluation result of binding affinity to FGFR": "C (0.1 or more and less than 0.5)"}
{"substance": "182 (YCEEWYLDPEQYQYFIYFK(COCH2)Y; thioether 2-19 (inferred)) [compound 182]", "Evaluation result of binding affinity to FGFR": "C (0.1 or more and less than 0.5)"}
{"substance": "205 (YCEENYRDPEQYQYFIYFK(COCH2)Y; thioether 2-19 (inferred)) [compound 205]", "Evaluation result of binding affinity to FGFR": "A (0.7 or more)"}
{"substance": "346 (YCEENYLDPEQYQYFIYFK(COCH2)K; thioether 2-19) [compound 346]", "Evaluation result of binding affinity to FGFR": "A (0.7 or more)"}
{"substance": "234 (YCEENYLDREQYQYFIYFK(COCH2)Y; thioether 2-19 (inferred)) [compound 234]", "Evaluation result of binding affinity to FGFR": "A (0.7 or more)"}
{"substance": "268 (YCEENYLDPEQYEYFIYFK(COCH2)Y; thioether 2-19) [compound 268]", "Evaluation result of binding affinity to FGFR": "A (0.7 or more)"}
